Source: patent US8455435B2, “Remedies for ischemia” (Ludwig-Maximilians-Universitat Munchen, priority 2006, dated 2013)
Entries after “also recorded” stand apart in the source; their conditions may differ.

Legend:
[1] = tested on: CD45+/CD34+ and CD34+/CXCR4+ cells in the heart; test: Flow cytometry of non myocyte cardiac cells after MI; assay type: in vivo, C57BL/6 and CD26 k.o. mice; settings: AMD3100 1.25 mg/kg i.p. in G-CSF treated CD26 k.o. and G-CSF-DipA animals
Procedure: FIGS. 27A, 27C, 27E, Tab. S 3A; Nr. 2: FIGS. 27B, 27D, 27F, Tab. S 3B). Animal care and all experimental procedures were performed in strict accordance to the Guide for the Care and Use of Laboratory Animals published by the US National Institutes of Health (NIH publication No. 85-23, revised 1996). Mice were randomly divided into the following groups: […] G-CSF and/or Diprotin A treatment was initiated immediately after the surgical procedure. Cardiac cells from sham operated and infarcted hearts of wt and CD26 k.o. mice were analyzed 48 hours after MI (n=6). Therefore, a “myocyte-depleted” cardiac cell population was prepared, incubating minced myocardium in 0.1% collagenase IV (Gibco BrL) 30 min at 37° C., lethal to most adult mouse cardiomyocytes (Zhou et al., 2000). Cells were then filtered through a 70-μm mesh. […] Cells were stained with CD45-PerCP, CD34-FITC, CD26-FITC, c-kit-PE, Sca-1-PE, CXCR4-PE Flk-1, Flk-PE, CD3-biotin, CD45R/B220-biotin, CD11b-biotin, TER-119-biotin, Ly-6G-biotin Abs (all from BD Pharmingen) and subjected to flow cytometry using […] flow cytometer and Expo32 ADC Xa software (Beckman Coulter). For evaluation of SDF-1-CXCR4 dependent homing, G-CSF stimulated CD26 k.o. mice were treated i.p. with the CXCR4-antagonist AMD3100 (1.25 mg/kg). Cardiac cells were analyzed 8 hours after the last AMD3100 application. Each analysis included 50000 events.

CXCR4 = CXCR4 (Mus musculus, UniProt P70658); settings: 48 hours after MI; cited from earlier work
cortical infarct = settings: permanent middle cerebral artery occlusion; cited from earlier work
[2] = tested on: CD45+/CD34+ and CD45+/CD34- cell populations in peripheral blood; test: Flow cytometry of peripheral blood mononuclear cells after PTH or G-CSF in healthy mice; assay type: in vivo, C57BL/6 mice; settings: PTH day 6 and day 14; G-CSF day 6
Procedure: (§1) For the experiments healthy age- and sex-matched (male, 8-12 weeks of age) C57BL/6 mice (Charles River) were used. Animal care and all experimental procedures were performed in strict accordance to the German and National Institutes of Health animal legislation guidelines and were approved by the local animal care and use committees.
(§2) Mice were divided into the following groups: 1) administration of saline daily for 6 days, sacrificed at day 7 (n=6). 2) administration of PTH (Bachem) daily for 6 consecutive days (80 μg per kg body weight per day, intraperitoneally), sacrificed at day 7 (n=6). 3) administration of PTH daily for 14 consecutive days, sacrificed at day 15 (n=6). 4) administration of G-CSF (Amgen Biologicals) daily for 5 consecutive days (200 μg per kg body weight per day, intraperitoneally), sacrificed at day 6 (n=6).
(§3) at day 6, 1 ml of peripheral blood was harvested from each mouse by aspirating the carotid artery. Bone marrow cells were obtained by flushing the tibias and femurs from the euthanized mice. Mononuclear cells were separated by density-gradient centrifugation using 1.077 g/mL Histopaque solution (Sigma Chemicals), purified and resuspended in phosphate-buffered saline (PBS) containing 1% bovine serum albumin. Cells were incubated for 40 minutes in the dark at 4° C. with following fluorescein-isothiocyanate (FITC), phycoerythrin (PE), and peridinin-chlorphyll-protein (PerCP) conjugated monoclonal antibodies: CD45-PerCP, C34-FITC, CD31-PE, Sca-1-PE and c-kit-PE (all from BD Pharmingen). Isotype-identical antibodies (BD Pharmingen) served as controls. Cells were analyzed by 3-color flow cytometry using a Coulter® Epics® XL-MCL™ flow cytometer (Beckman Coulter). Each analysis included 20000 events. The absolute number of antigen-positive cells per ml of whole blood was calculated by multiplying the percentage of antigen-positive cells with the total number of mononuclear cells per ml of blood detected by the conventional hematological cell analyzer. The number of lymphocytes together with the number of monocytes comprised the total number of mononuclear cells.

[3] = tested on: CD45+/CD34+ and CD45+/CD34- cell populations in bone marrow; test: Flow cytometry of bone marrow cells after PTH or G-CSF in healthy mice; assay type: in vivo, C57BL/6 mice
Procedure: as §1, §2, §3

CD45+/CD34+ progenitors = test: FACS of peripheral blood, stem cell mobilization by G-CSF; assay type: in vivo, C57BL/6 and CD26 k.o. mice; settings: G-CSF 100 μg/kg/d; wt (+/-Diprotin A) and CD26 k.o. mice vs saline
Procedure: 10 weeks old CD26 k.o. (n=6) were either treated with G-CSF (100 μg/kg/d) or saline daily for 6 days and or C57BL/6 mice (n=6) were treated with saline, G-CSF, Diprotin A or both daily for 6 days. Cells were separated as described previously (Deindl et al., 2006). The following monoclonal antibodies were used: CD45-PerCP, CD34-FITC, CD31-PE, c-kit-PE, Sca-1-PE, CXCR4-PE, Flk-PE, CD3-biotin, CD45R/B220-biotin, CD11b-biotin, TER-119-biotin, Ly-6G-biotin (all from BD Pharmingen). Matching isotype antibodies (BD Pharmingen) served as controls. Cells were analyzed by 3-color flow cytometry using a Coulter® Epics® XL-MCL™ flow cytometer (Beckman Coulter). Each analysis included 50000 events.

infarcted heart = test: Histology and immunohistochemistry after MI: infarct size, LV wall thickness, CD31+ capillaries (G-CSF, Diprotin A); assay type: in vivo, C57BL/6 and CD26 k.o. mice
Procedure: (§4) MI was induced in 10 weeks old male CD26 k.o. or C57BL/6 mice by surgical occlusion of the left anterior descending artery (LAD) as described previously (Deindl et al., 2006). Experiments concerning survival and cardiac function were performed by two different operators (Nr. 1: FIGS. 27A, 27C, 27E, Tab. S 3A; Nr. 2: FIGS. 27B, 27D, 27F, Tab. S 3B). Animal care and all experimental procedures were performed in strict accordance to the Guide for the Care and Use of Laboratory Animals published by the US National Institutes of Health (NIH publication No. 85-23, revised 1996).
(§5) Mice were randomly divided into the following groups: Sham operated animals (n=20), infarcted wildtyp (n=20) (wt) receiving either saline (0.9% NaCl), G-CSF (100 μg/kg/d i.p.), Diprotin A (70 μg/kg/twice per day) or G-CSF+Diprotin A and CD26 k.o. animals (n=20) receiving either saline (0.9% NaCl) or G-CSF (100 μg/kg/d) for up to 6 days. G-CSF and/or Diprotin A treatment was initiated immediately after the surgical procedure.
At day 6 (n=6) and day 30 (n=6), hearts were excised. After fixation in 4% phosphate buffered formalin the hearts were cut transversally into 2 mm thick slices and embedded in paraffin. 4 μm thick sections were cut and mounted on positively charged glass slides. […] Infarct size and wall thickness were determined according to Deindl et al. (Deindl et al., 2006).
For immunostaining the following primary antibodies were used: CD45 (rat anti-mouse, BD Pharmingen), CD31 (goat anti-mouse, Santa Cruz), Ki67 (goat anti-mouse, Santa Cruz). […] Apoptotic cells were detected according to Harada et al. 2005 (Harada et al., 2005) using the TUNEL assay (ApopTag, MP Biomedicals). Digital photographs were taken at a magnification of ×400, and 10 random high-power fields (HPF) from the borderzone of each heart sample (n=3) were analyzed. Quantification of blood vessels was assessed by CD31^+ immunohistochemistry in the granulation tissue at the border zone. The numbers of CD31^+ capillaries were quantified from 10 random high power fields (HPF) with 400× magnification.

[4] = tested on: TUNEL positive cardiomyocytes; test: TUNEL staining of apoptotic cardiomyocytes in the border zone after MI; assay type: in vivo, wt and CD26-/- mice; settings: 2 days after MI, wt and CD26-/- animals, vs saline
Procedure: as §5
For immunostaining the following primary antibodies were used: CD45 (rat anti-mouse, BD Pharmingen), CD31 (goat anti-mouse, Santa Cruz), Ki67 (goat anti-mouse, Santa Cruz). AEC was used as chromogen. Double staining for CD31 and Ki67 was performed using DAB as additional chromogen (all from Dako). Apoptotic cells were detected according to Harada et al. 2005 (Harada et al., 2005) using the TUNEL assay (ApopTag, MP Biomedicals). Digital photographs were taken at a magnification of ×400, and 10 random high-power fields (HPF) from the borderzone of each heart sample (n=3) were analyzed. Quantification of blood vessels was assessed by CD31^+ immunohistochemistry in the granulation tissue at the border zone. The numbers of CD31^+ capillaries were quantified from 10 random high power fields (HPF) with 400× magnification.

myocardial function = test: Pressure volume relations four weeks after MI (G-CSF, Diprotin A); assay type: in vivo, C57BL/6 and CD26 k.o. mice; settings: day 30, CD26 k.o. mice
Procedure: as §4, §5
For evaluation of pressure-volume relationships in vivo, mice were anesthetised with thiopental (100 mg/kg, i.p.), intubated and ventilated (MiniVent, HUGO SACHS, Freiburg, Germany). After catheterization via the right carotid artery an impedance-micro manometer catheter (Millar Instruments, Houston, Tex.) was introduced into the left ventricle. Raw conductance volumes were corrected for parallel conductance by the hypertonic saline dilution method as described previously (Zaruba et al., 2008). Heamodynamic measurements as well as data analyses were performed by a blinded person using PVAN analysis software (HUGO SACHS, March, Germany).

myocardial infarction = test: Survival after MI (Kaplan-Meier; G-CSF, Diprotin A); assay type: in vivo, C57BL/6 and CD26 k.o. mice
Procedure: as §4, §5
Results were expressed as mean±s.e.m. Multiple group comparisons were performed by one-way analyses of variance (ANOVA) followed by the Bonferroni procedure for comparison of means. Comparisons between two groups were performed using the unpaired Student's t-test. Data were considered statistically significant at a value of p≦0.05. Mortality was analyzed by the Kaplan-Meier-method.

Chain of CXCR4 (P70658 whole entry): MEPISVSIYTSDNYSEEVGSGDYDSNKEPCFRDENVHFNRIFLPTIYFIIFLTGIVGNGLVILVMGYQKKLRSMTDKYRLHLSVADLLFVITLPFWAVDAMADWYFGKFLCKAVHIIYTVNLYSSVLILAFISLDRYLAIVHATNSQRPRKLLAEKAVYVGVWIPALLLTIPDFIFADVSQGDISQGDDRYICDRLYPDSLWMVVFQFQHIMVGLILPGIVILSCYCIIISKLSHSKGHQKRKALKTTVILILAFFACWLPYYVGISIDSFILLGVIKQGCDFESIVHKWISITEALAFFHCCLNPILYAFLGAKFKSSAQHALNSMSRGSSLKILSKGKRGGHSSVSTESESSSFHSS

## c1cc(CN2CCCNCCNCCCNCC2)ccc1CN1CCCNCCNCCCNCC1 [AMD3100]
[1]
  recruitment of CD34+/CXCR4+ cells into the heart after MI: diminished the number; also recorded: reversed the recruitment
CXCR4
  decrease of bone marrow derived cell recruitment after MI: 64%

## PTHrP(1-34): parathyroid hormone-related peptide fragment 1-34, SEQ ID NO:7
Cortical infarct
  decrease of cortical infarct size: up to 47%

B1: G-CSF: granulocyte colony stimulating factor (Amgen Biologicals) (protein, UniProt P09919 31-207, looked up)
Granulocyte …: TPLGPASSLPQSFLLKCLEQVRKIQGDGAALQEKLVSECATYKLCHPEELVLLGHSLGIPWAPLSSCPSQALQLAGCLSQLHSGLFLYQGLLQALEGISPELGPTLDTLQLDVADFATTIWQQMEELGMAPALQPTQGAMPAFASAFQRRAGGVLVASHLQSFLEVSYRVLRHLAQP
[2]
  subtypes of CD45+/CD34+ and CD45+/CD34- cells in peripheral blood: significant increase
[3]; G-CSF treatment, p<0.001
  increase of CD45+/CD34- cells in bone marrow compared to saline treated mice: 18.9%
[3]; PTH day 6, G-CSF
  subtypes of CD45+/CD34- cells in bone marrow: significantly decreased
[3]; PTH day 6 or day 14, G-CSF vs control group
  subtypes of CD45+CD34+ cells in bone marrow: significant decrease
CD45+/CD34+ progenitors
  mobilization of CD45+/CD34+ progenitors in peripheral blood: significantly increased mobilization
Infarcted heart; 6 days after MI, CD26 k.o. animals
  number of CD31+ capillaries at the infarct borderzone: Increased neovascularization; also recorded: significantly increased number
Infarcted heart; day 30, CD26 k.o. animals
  size of LV infarction (scar tissue): smaller
  thickness of the left ventricular wall: significantly improved thickness; also recorded: significantly ameliorated
[4]
  number of TUNEL positive cardiomyocytes in the border zone: decreased apoptotic cell death; also recorded: reduced the number
Myocardial function
  arterial afterload (arterial elastance): markedly reduced
  diastolic heart function (isovolumetric relaxation parameter Tau): improved diastolic heart function
  ventricular dilation measured by enddiastolic volumes: attenuated ventricular dilation
Myocardial infarction; CD26 k.o. mice
  survival rate: 75%
Myocardial infarction; wt animals
  survival rate: 55%
